Results published in patent US20160145684A1.

How the values were obtained:
[1] = target: Human statherin protein (human) (UniProt P02808); assay: indirect ELISA; coat: B-SB-U (buccal swab stirred in 30 mL urine, individual B) diluted 1:40; replicate R2
[2] = target: Human statherin protein (human) (UniProt P02808); assay: indirect ELISA; coat: A-Saliva (pure saliva of individual A) diluted 1:40; mean of triplicate
[3] = target: Human statherin protein (human) (UniProt P02808); assay: indirect ELISA; coat: sample 1, 50 uL saliva/100 uL in urine, diluted 1:40; mean of triplicate
[4] = target: Human statherin protein (human) (UniProt P02808); assay: indirect ELISA; coat: sample 3, 12.5 uL saliva/100 uL in urine, diluted 1:40; replicate R1
[5] = target: Human statherin protein (human) (UniProt P02808); assay: indirect ELISA; coat: sample 1, 50 uL saliva/100 uL in urine, diluted 1:40; mean minus saliva-free urine blank
[6] = target: Human statherin protein (human) (UniProt P02808); assay: indirect ELISA; coat: sample 5, 3.125 uL saliva/100 uL in urine, diluted 1:40; replicate R1
[7] = target: Human statherin protein (human) (UniProt P02808); assay: indirect ELISA; coat: sample 1, 50 uL saliva/100 uL in urine, diluted 1:40; replicate R3
[8] = target: Human statherin protein (human) (UniProt P02808); assay: indirect ELISA; coat: B-Saliva (pure saliva of individual B) diluted 1:40; replicate R2
[9] = target: Human statherin protein (human) (UniProt P02808); assay: indirect ELISA; coat: sample 2, 25 uL saliva/100 uL in urine, diluted 1:40; replicate R3
[10] = target: Human statherin protein (human) (UniProt P02808); assay: indirect ELISA; coat: B-Saliva (pure saliva of individual B) diluted 1:40; replicate R1
[11] = target: Human statherin protein (human) (UniProt P02808); assay: indirect ELISA; coat: B-Saliva (pure saliva of individual B) diluted 1:40; mean of triplicate
[12] = target: Human statherin protein (human) (UniProt P02808); assay: indirect ELISA; coat: A-SP-U (about 500 uL spit in 30 mL urine, individual A) diluted 1:40; replicate R1
[13] = target: Human statherin protein (human) (UniProt P02808); assay: indirect ELISA; coat: sample 7, 0.78125 uL saliva/100 uL in urine, diluted 1:40; mean minus saliva-free urine blank
[14] = target: Human statherin protein (human) (UniProt P02808); assay: indirect ELISA; coat: sample 2, 25 uL saliva/100 uL in urine, diluted 1:40; mean minus saliva-free urine blank
[15] = target: Human statherin protein (human) (UniProt P02808); assay: indirect ELISA; coat: sample 2, 25 uL saliva/100 uL in urine, diluted 1:40; replicate R1
[16] = target: Human statherin protein (human) (UniProt P02808); assay: indirect ELISA; coat: sample 6, 1.5625 uL saliva/100 uL in urine, diluted 1:40; replicate R3
[17] = target: Human statherin protein (human) (UniProt P02808); assay: indirect ELISA; coat: B-Saliva (pure saliva of individual B) diluted 1:40; replicate R3
[18] = target: Human statherin protein (human) (UniProt P02808); assay: indirect ELISA; coat: sample 4, 6.25 uL saliva/100 uL in urine, diluted 1:40; mean of triplicate
[19] = target: Human statherin protein (human) (UniProt P02808); assay: indirect ELISA; coat: sample 7, 0.78125 uL saliva/100 uL in urine, diluted 1:40; mean of triplicate
[20] = target: Human statherin protein (human) (UniProt P02808); assay: indirect ELISA; coat: sample 5, 3.125 uL saliva/100 uL in urine, diluted 1:40; replicate R2
[21] = target: Human statherin protein (human) (UniProt P02808); assay: indirect ELISA; coat: A-SB-U (buccal swab stirred in 30 mL urine, individual A) diluted 1:40; replicate R3
[22] = target: Human statherin protein (human) (UniProt P02808); assay: indirect ELISA; coat: B-SB-U (buccal swab stirred in 30 mL urine, individual B) diluted 1:40; replicate R3
[23] = target: Human statherin protein (human) (UniProt P02808); assay: indirect ELISA; coat: sample 1, 50 uL saliva/100 uL in urine, diluted 1:40; replicate R1
[24] = target: Human statherin protein (human) (UniProt P02808); assay: indirect ELISA; coat: A-SB-U (buccal swab stirred in 30 mL urine, individual A) diluted 1:40; replicate R1
[25] = target: Human statherin protein (human) (UniProt P02808); assay: indirect ELISA; coat: A-Saliva (pure saliva of individual A) diluted 1:40; replicate R2
[26] = target: Human statherin protein (human) (UniProt P02808); assay: indirect ELISA; coat: A-Saliva (pure saliva of individual A) diluted 1:40; replicate R3
[27] = target: Human statherin protein (human) (UniProt P02808); assay: indirect ELISA; coat: B-SB-U (buccal swab stirred in 30 mL urine, individual B) diluted 1:40; mean of triplicate
[28] = target: Human statherin protein (human) (UniProt P02808); assay: indirect ELISA; coat: sample 3, 12.5 uL saliva/100 uL in urine, diluted 1:40; mean minus saliva-free urine blank
[29] = target: Human statherin protein (human) (UniProt P02808); assay: indirect ELISA; coat: A-Saliva (pure saliva of individual A) diluted 1:40; replicate R1
[30] = target: Human statherin protein (human) (UniProt P02808); assay: indirect ELISA; coat: sample 4, 6.25 uL saliva/100 uL in urine, diluted 1:40; replicate R3
[31] = target: Human statherin protein (human) (UniProt P02808); assay: indirect ELISA; coat: sample 6, 1.5625 uL saliva/100 uL in urine, diluted 1:40; mean minus saliva-free urine blank
[32] = target: Human statherin protein (human) (UniProt P02808); assay: indirect ELISA; coat: A-SP-U (about 500 uL spit in 30 mL urine, individual A) diluted 1:40; replicate R3
[33] = target: Human statherin protein (human) (UniProt P02808); assay: indirect ELISA; coat: sample 2, 25 uL saliva/100 uL in urine, diluted 1:40; replicate R2
[34] = target: Human statherin protein (human) (UniProt P02808); assay: indirect ELISA; coat: B-SP-U (about 500 uL spit in 30 mL urine, individual B) diluted 1:40; replicate R2
[35] = target: Human statherin protein (human) (UniProt P02808); assay: indirect ELISA; coat: A-SP-U (about 500 uL spit in 30 mL urine, individual A) diluted 1:40; mean of triplicate
[36] = target: Human statherin protein (human) (UniProt P02808); assay: indirect ELISA; coat: B-SP-U (about 500 uL spit in 30 mL urine, individual B) diluted 1:40; replicate R1
[37] = target: Human statherin protein (human) (UniProt P02808); assay: indirect ELISA; coat: sample 3, 12.5 uL saliva/100 uL in urine, diluted 1:40; mean of triplicate
[38] = target: Human statherin protein (human) (UniProt P02808); assay: indirect ELISA; coat: sample 7, 0.78125 uL saliva/100 uL in urine, diluted 1:40; replicate R3
[39] = target: Human statherin protein (human) (UniProt P02808); assay: indirect ELISA; coat: B-SP-U (about 500 uL spit in 30 mL urine, individual B) diluted 1:40; mean of triplicate
[40] = target: Human statherin protein (human) (UniProt P02808); assay: indirect ELISA; coat: sample 6, 1.5625 uL saliva/100 uL in urine, diluted 1:40; mean of triplicate
[41] = target: Human statherin protein (human) (UniProt P02808); assay: indirect ELISA; coat: A-SP-U (about 500 uL spit in 30 mL urine, individual A) diluted 1:40; replicate R2
[42] = target: Human statherin protein (human) (UniProt P02808); assay: indirect ELISA; coat: sample 4, 6.25 uL saliva/100 uL in urine, diluted 1:40; replicate R2
[43] = target: Human statherin protein (human) (UniProt P02808); assay: indirect ELISA; coat: sample 4, 6.25 uL saliva/100 uL in urine, diluted 1:40; replicate R1
[44] = target: Human statherin protein (human) (UniProt P02808); assay: indirect ELISA; coat: B-SP-U (about 500 uL spit in 30 mL urine, individual B) diluted 1:40; replicate R3
[45] = target: Human statherin protein (human) (UniProt P02808); assay: indirect ELISA; coat: sample 5, 3.125 uL saliva/100 uL in urine, diluted 1:40; replicate R3
[46] = target: Human statherin protein (human) (UniProt P02808); assay: indirect ELISA; coat: A-SB-U (buccal swab stirred in 30 mL urine, individual A) diluted 1:40; mean of triplicate
[47] = target: Human statherin protein (human) (UniProt P02808); assay: indirect ELISA; coat: sample 3, 12.5 uL saliva/100 uL in urine, diluted 1:40; replicate R2
[48] = target: Human statherin protein (human) (UniProt P02808); assay: indirect ELISA; coat: sample 3, 12.5 uL saliva/100 uL in urine, diluted 1:40; replicate R3
[49] = target: Human statherin protein (human) (UniProt P02808); assay: indirect ELISA; coat: sample 7, 0.78125 uL saliva/100 uL in urine, diluted 1:40; replicate R1
[50] = target: Human statherin protein (human) (UniProt P02808); assay: indirect ELISA; coat: B-SB-U (buccal swab stirred in 30 mL urine, individual B) diluted 1:40; replicate R1
[51] = target: Human statherin protein (human) (UniProt P02808); assay: indirect ELISA; coat: sample 6, 1.5625 uL saliva/100 uL in urine, diluted 1:40; replicate R1
[52] = target: Human statherin protein (human) (UniProt P02808); assay: indirect ELISA; coat: sample 5, 3.125 uL saliva/100 uL in urine, diluted 1:40; mean of triplicate
[53] = target: Human statherin protein (human) (UniProt P02808); assay: indirect ELISA; coat: sample 7, 0.78125 uL saliva/100 uL in urine, diluted 1:40; replicate R2
[54] = target: Human statherin protein (human) (UniProt P02808); assay: indirect ELISA; coat: sample 4, 6.25 uL saliva/100 uL in urine, diluted 1:40; mean minus saliva-free urine blank
[55] = target: Human statherin protein (human) (UniProt P02808); assay: indirect ELISA; coat: sample 5, 3.125 uL saliva/100 uL in urine, diluted 1:40; mean minus saliva-free urine blank
[56] = target: Human statherin protein (human) (UniProt P02808); assay: indirect ELISA; coat: A-SB-U (buccal swab stirred in 30 mL urine, individual A) diluted 1:40; replicate R2
[57] = target: Human statherin protein (human) (UniProt P02808); assay: indirect ELISA; coat: sample 1, 50 uL saliva/100 uL in urine, diluted 1:40; replicate R2
[58] = target: Human statherin protein (human) (UniProt P02808); assay: indirect ELISA; coat: sample 2, 25 uL saliva/100 uL in urine, diluted 1:40; mean of triplicate
[59] = target: Human statherin protein (human) (UniProt P02808); assay: indirect ELISA; coat: sample 6, 1.5625 uL saliva/100 uL in urine, diluted 1:40; replicate R2

UniProt P02808, sequence (P02808 20-62 limits assumed): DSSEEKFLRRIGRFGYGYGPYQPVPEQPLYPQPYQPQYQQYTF

Substance: Statherin Antibody (N-16), Santa Cruz Biotechnology, Inc. (Catalog No. sc-28112)
- OD405 [1]: 0.311 OD405
- OD405 Mean [2]: 1.22 OD405
- OD405 Mean [3]: 0.155 OD405
- OD405 [4]: 0.161 OD405
- OD405 Mean - Blank mean [5]: 0.125 OD405
- OD405 [6]: 0.132 OD405
- OD405 [7]: 0.144 OD405
- OD405 [8]: 0.289 OD405
- OD405 [9]: 0.114 OD405
- OD405 [10]: 0.325 OD405
- OD405 Mean [11]: 0.336 OD405
- OD405 [12]: 0.207 OD405
- OD405 Mean - Blank mean [13]: 0.032 OD405
- OD405 Mean - Blank mean [14]: 0.095 OD405
- OD405 [15]: 0.147 OD405
- OD405 [16]: 0.075 OD405
- OD405 [17]: 0.394 OD405
- OD405 Mean [18]: 0.144 OD405
- OD405 Mean [19]: 0.062 OD405
- OD405 [20]: 0.117 OD405
- OD405 [21]: 0.291 OD405
- OD405 [22]: 0.289 OD405
- OD405 [23]: 0.171 OD405
- OD405 [24]: 0.331 OD405
- OD405 [25]: 1.22 OD405
- OD405 [26]: 1.24 OD405
- OD405 Mean [27]: 0.306 OD405
- OD405 Mean - Blank mean [28]: 0.107 OD405
- OD405 [29]: 1.21 OD405
- OD405 [30]: 0.131 OD405
- OD405 Mean - Blank mean [31]: 0.053 OD405
- OD405 [32]: 0.236 OD405
- OD405 [33]: 0.114 OD405
- OD405 [34]: 0.168 OD405
- OD405 Mean [35]: 0.224 OD405
- OD405 [36]: 0.171 OD405
- OD405 Mean [37]: 0.137 OD405
- OD405 [38]: 0.057 OD405
- OD405 Mean [39]: 0.168 OD405
- OD405 Mean [40]: 0.083 OD405
- OD405 [41]: 0.229 OD405
- OD405 [42]: 0.14 OD405
- OD405 [43]: 0.16 OD405
- OD405 [44]: 0.165 OD405
- OD405 [45]: 0.114 OD405
- OD405 Mean [46]: 0.303 OD405
- OD405 [47]: 0.129 OD405
- OD405 [48]: 0.12 OD405
- OD405 [49]: 0.069 OD405
- OD405 [50]: 0.318 OD405
- OD405 [51]: 0.091 OD405
- OD405 Mean [52]: 0.121 OD405
- OD405 [53]: 0.06 OD405
- OD405 Mean - Blank mean [54]: 0.114 OD405
- OD405 Mean - Blank mean [55]: 0.091 OD405
- OD405 [56]: 0.287 OD405
- OD405 [57]: 0.151 OD405
- OD405 Mean [58]: 0.125 OD405
- OD405 [59]: 0.083 OD405
